The text below walks through data of patent publication US20060029947A1 (University of Texas, published 2006).

In assay [1] the target is T1, Bacillus anthracis protective antigen (PA) (Bacillus anthracis, UniProt P13423 30-764). As to the kind of experiment: SPR (BIACore 3000), PA on CM5 chip. On the technique in general: In SPR one partner is held on a chip, and binding of the other changes the refractive index at the surface.
Assay [2] concerns the target T1, Bacillus anthracis protective antigen …. Description: SPR, purified scAb on immobilized PA ('Affinity Measurements of Purified scAb').
The target is the same in assay [3]. As to the kind of experiment: SPR (BIACore 3000), PA on CM5 chip, scAb in solution.
Assay [4] has the same target. Description: SPR (BIACore 3000).
For assay [5] the target is unchanged.

T1 sequence (P13423 30-764 limits assumed): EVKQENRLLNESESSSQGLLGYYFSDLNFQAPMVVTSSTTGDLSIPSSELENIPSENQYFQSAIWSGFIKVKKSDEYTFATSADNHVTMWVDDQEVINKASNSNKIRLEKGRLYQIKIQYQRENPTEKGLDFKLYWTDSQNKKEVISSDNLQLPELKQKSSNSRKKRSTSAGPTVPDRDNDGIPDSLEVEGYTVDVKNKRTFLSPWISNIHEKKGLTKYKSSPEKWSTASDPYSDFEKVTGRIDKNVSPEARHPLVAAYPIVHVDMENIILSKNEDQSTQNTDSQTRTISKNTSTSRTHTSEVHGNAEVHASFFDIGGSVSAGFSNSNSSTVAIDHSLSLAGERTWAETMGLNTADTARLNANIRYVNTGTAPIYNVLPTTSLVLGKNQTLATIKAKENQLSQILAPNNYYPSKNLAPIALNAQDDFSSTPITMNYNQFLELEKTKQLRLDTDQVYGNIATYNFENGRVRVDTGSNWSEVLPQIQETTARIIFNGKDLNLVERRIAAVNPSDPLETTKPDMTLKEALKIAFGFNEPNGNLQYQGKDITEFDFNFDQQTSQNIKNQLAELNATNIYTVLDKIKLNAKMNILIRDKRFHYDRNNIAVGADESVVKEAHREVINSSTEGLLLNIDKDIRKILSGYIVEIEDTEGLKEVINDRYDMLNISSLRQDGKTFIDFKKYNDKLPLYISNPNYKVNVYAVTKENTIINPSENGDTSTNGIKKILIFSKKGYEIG

B1: 14B7 scAb (scFv)
chain: DIQMTQTTSSLSASLGDRVTISCRASQDIRNYLNWYQQKPDGTVKLLIYYTSRLQSGVPSRFSGSGSGTDYSLTISNQEQEDIGTYFCQQGNTLPWTFGGGTKLEIKRGGGGSGGGGSGGGGSGGGGSEVQLQQSGPELVKPGASVKISCKDSGYAFSSSWMNWVKQRPGQGLEWIGRIYPGDGDTNYNGKFKGKATLTADKSSSTAYMQLSSLTSVDSAVYFCARSGLLRYAMDYWGQGTSVTVSS
Molecule B1 yielded a Kd in assay [1] of 4.3 nM. Also, in assay [2], the koff was 0.003 s⁻¹ and the kon worked out at 710000 M⁻¹ s⁻¹.

B2: M18 scAb (scFv)
chain: DIQMTQTTSSLSASLGDRVTVSCRASQDIRNYLNWYQQKPDGTVKFLIYYTSRLQPGVPSRFSGSGSGTDYSLTINNLEQEDIGTYFCQQGNTPPWTFGGGTKLEIKRGGGGSDGGGSGGGGSGGGGSEVQLQQSGPELVKPGASVKISCKDSGYAFNSSWMNWVKQRPGQGLEWIGRIYPGDGDSNYNGKFEGKAILTADKSSSTAYMQLSSLTSVDSAVYFCARSGLLRYAMDYWGQGTSVTVSS
In the case of B2, in assay [3], the Kd was determined as 0.035 nM and the koff stood at 4.2e-05 s⁻¹. In assay [4], the “fold affinity improvement compared to the parental antibody 14B7” value is over 120 fold. The kon in assay [2] is 1.2e+06 M⁻¹ s⁻¹.

B3: NlpA-[14B7 scFv] (scFv)
scFv: CDQSSSDIQMTQTTSSLSASLGDRVTISCRASQDIRNYLNWYQQKPDGTVKLLIYYTSRLQSGVPSRFSGSGSGTDYSLTISNQEQEDIGTYFCQQGNTLPWTFGGGTKLEIKRGGGGSGGGGSGGGGSGGGGSEVQLQQSGPELVKPGASVKISCKDSGYAFSSSWMNWVKQRPGQGLEWIGRIYPGDGDTNYNGKFKGKATLTADKSSSTAYMQLSSLTSVDSAVYFCARSGLLRYAMDYWGQGTSVTVSS
B3: the “fold higher mean fluorescence intensity compared to controls” value in assay [5] is about 9 fold.

By Kd is commonly meant the concentration at which binding is half-saturated. Low readings indicate higher affinity, high ones lower affinity. The koff is the first-order rate constant of dissociation. A high value points to fast dissociation. One may read the kon as the rate constant with which the complex forms.
